The record followed here is patent publication US20140322307A1 (LIPOTEC S A, published 2014).

For assay [1], the target named is T1, Proteinase-Activated Receptor-2 (human, on human keratinocytes) (human, UniProt P55085 37-397).
T1 sequence (looked up): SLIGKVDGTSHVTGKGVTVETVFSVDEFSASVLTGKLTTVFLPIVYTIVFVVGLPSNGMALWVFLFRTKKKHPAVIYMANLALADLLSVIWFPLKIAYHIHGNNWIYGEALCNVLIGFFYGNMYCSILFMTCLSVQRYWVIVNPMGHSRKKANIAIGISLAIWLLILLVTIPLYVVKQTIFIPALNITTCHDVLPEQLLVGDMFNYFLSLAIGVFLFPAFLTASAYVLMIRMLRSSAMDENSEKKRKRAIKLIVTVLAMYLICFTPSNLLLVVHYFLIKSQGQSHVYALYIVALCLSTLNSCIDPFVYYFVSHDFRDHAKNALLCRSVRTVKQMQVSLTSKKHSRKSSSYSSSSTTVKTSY
In words: cell-based or functional assay.

Assay [2] deals with T2, Proteinase-Activated Receptor-2 (rat, on rat DRG neurons) (rat, UniProt Q63645 37-397).
T2 sequence (looked up): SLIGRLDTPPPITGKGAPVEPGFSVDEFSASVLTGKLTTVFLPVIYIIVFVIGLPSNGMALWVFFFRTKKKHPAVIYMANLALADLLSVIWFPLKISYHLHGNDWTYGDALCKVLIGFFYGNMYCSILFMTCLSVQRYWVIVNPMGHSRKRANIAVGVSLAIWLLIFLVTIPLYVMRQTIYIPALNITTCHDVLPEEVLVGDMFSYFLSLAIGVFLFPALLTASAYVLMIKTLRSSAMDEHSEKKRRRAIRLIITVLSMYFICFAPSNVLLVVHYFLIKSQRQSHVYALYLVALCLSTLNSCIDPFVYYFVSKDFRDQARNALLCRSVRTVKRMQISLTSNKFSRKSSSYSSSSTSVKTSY
In words: cell-based or functional assay.

Ac-FFWFHV-NH2 [Ac-L-Phe-L-Phe-L-Trp-L-Phe-L-His-L-Val-NH2]: in assay [1], the “Inhibition PAR-2 activity (calcium fluorescence, human keratinocytes, peptide at 1 mg/mL)” value came out at 67.8% and the “PAR-2 activity (calcium fluorescence, human keratinocytes, peptide at 1 mg/mL)” value worked out at 32.2%. For the same molecule, in assay [2], the “% CGRP (release from rat DRG neurons after PAR-2 agonist I and capsaicin; peptide at 25 µg/mL)” value is 58.9%; the “% CGRP (release from rat DRG neurons after PAR-2 agonist I and capsaicin; peptide at 0.5 mg/mL)” value turned out to be 17.7%.
With Ac-FFWFIV-NH2 [Ac-L-Phe-L-Phe-L-Trp-L-Phe-L-Ile-L-Val-NH2], in assay [1], the “Inhibition PAR-2 activity (calcium fluorescence, human keratinocytes, peptide at 1 mg/mL)” value stood at 13.9% and the “PAR-2 activity (calcium fluorescence, human keratinocytes, peptide at 1 mg/mL)” value came to 86.1%.
For Ac-SMQFIV-NH2 [Ac-L-Ser-L-Met-L-Gln-L-Phe-L-Ile-L-Val-NH2], in that order: 23.4% and 76.7%.
As for Ac-FMWFHV-NH2 [Ac-L-Phe-L-Met-L-Trp-L-Phe-L-His-L-Val-NH2], in assay [1], the “Inhibition PAR-2 activity (calcium fluorescence, human keratinocytes, peptide at 1 mg/mL)” value is 76.5% and the “PAR-2 activity (calcium fluorescence, human keratinocytes, peptide at 1 mg/mL)” value is 23.5%. In assay [2], the “% CGRP (release from rat DRG neurons after PAR-2 agonist I and capsaicin; peptide at 25 µg/mL)” value is 70.1%; the “% CGRP (release from rat DRG neurons after PAR-2 agonist I and capsaicin; peptide at 0.5 mg/mL)” value turned out to be 20.2%.
In the case of Ac-SMWFIV-NH2 [Ac-L-Ser-L-Met-L-Trp-L-Phe-L-Ile-L-Val-NH2], in assay [1], the “Inhibition PAR-2 activity (calcium fluorescence, human keratinocytes, peptide at 1 mg/mL)” value is 43.3% and the “PAR-2 activity (calcium fluorescence, human keratinocytes, peptide at 1 mg/mL)” value was determined as 56.7%.
With Ac-FMWFIV-NH2 [Ac-L-Phe-L-Met-L-Trp-L-Phe-L-Ile-L-Val-NH2], in assay [1], the “Inhibition PAR-2 activity (calcium fluorescence, human keratinocytes, peptide at 1 mg/mL)” value came to 20.7% and the “PAR-2 activity (calcium fluorescence, human keratinocytes, peptide at 1 mg/mL)” value was found to be 79.3%.
The matching figures for Ac-FFQFIV-NH2 [Ac-L-Phe-L-Phe-L-Gln-L-Phe-L-Ile-L-Val-NH2]: 24.1% and 75.9%.
In the case of Ac-FMQFIV-NH2 [Ac-L-Phe-L-Met-L-Gln-L-Phe-L-Ile-L-Val-NH2], in assay [1], the “Inhibition PAR-2 activity (calcium fluorescence, human keratinocytes, peptide at 1 mg/mL)” value amounted to 28.6% and the “PAR-2 activity (calcium fluorescence, human keratinocytes, peptide at 1 mg/mL)” value amounted to 71.4%.
For the molecule Ac-FFWDIV-NH2 [Ac-L-Phe-L-Phe-L-Trp-L-Asp-L-Ile-L-Val-NH2], in assay [1], the “Inhibition PAR-2 activity (calcium fluorescence, human keratinocytes, peptide at 1 mg/mL)” value came to 67.4% and the “PAR-2 activity (calcium fluorescence, human keratinocytes, peptide at 1 mg/mL)” value worked out at 32.6%. In assay [2], the “% CGRP (release from rat DRG neurons after PAR-2 agonist I and capsaicin; peptide at 25 µg/mL)” value came to 78.7%; the “% CGRP (release from rat DRG neurons after PAR-2 agonist I and capsaicin; peptide at 0.5 mg/mL)” value turned out to be 20.3%.
In the case of Ac-SFQFIV-NH2 [Ac-L-Ser-L-Phe-L-Gln-L-Phe-L-Ile-L-Val-NH2], in assay [1], the “Inhibition PAR-2 activity (calcium fluorescence, human keratinocytes, peptide at 1 mg/mL)” value was found to be 26.2% and the “PAR-2 activity (calcium fluorescence, human keratinocytes, peptide at 1 mg/mL)” value was 73.8%.
